Measurements from US20220162320A1 (published 2022).

B1: scFv G8(5F02) (scFv, V domains shown)
VH: QVQLVQSGAEVKKPGASVKVSCKASGYTFTGYYIHWVRQAPGQGLEWMGVINPSGGSTTYAQKLQGRVTMTRDTSTSTVYMELSSLRSEDTAVYYCARDRDSSWTYYYYGMDVWGQGTTVTVSS
VL: EIVMTQSPATLSVSPGERATLSCRASQSVGNSLAWYQQKPGQAPRLLIYGASTRATGIPARFSGSGSGTEFTLTISSLQSEDFAVYYCQQYGSSPYTFGQGTKVEIK
B2: scFv G8(1H08) (scFv, V domains shown)
VH: QVQLVQSGAEVKKPGASVKVSCKASGYTFGNYFMHWVRQAPGQGLEWMGMVNPSGGSETFAQKFQGRVTMTRDTSTSTVYMELSSLRSEDTAVYYCAASTWIQPFDYWGQGTLVTVSS
VL: DIQMTQSPSSLSASVGDRVTITCRASQGINSYLAWYQQKPGKAPKLLIYDASNLETGVPSRFSGSGSGTDFTLTISSLQPEDFATYYCQQHNSYPPTFGQGTKLEIK
notes: also called G8-P1H08
B3: scFv G8(1C01) (scFv, V domains shown)
VH: QVQLVQSGAEVKKPGASVKVSCKASGGTFSSHAISWVRQAPGQGLEWMGVIIPSGGTSYTQKFQGRVTMTRDTSTSTVYMELSSLRSEDTAVYYCARGDYYDSSGYYFPVYFDYWGQGTLVTVSS
VL: DIQMTQSPSSLSASVGDRVTITCRASQNIYTYLNWYQQKPGKAPKLLIYDASNLETGVPSRFSGSGSGTDFTLTISSLQPEDFATYYCQQANGFPLTFGGGTKVEIK
B4: scFv G8(1A06) (scFv, V domains shown)
VH: QVQLVQSGAEVKKPGASVKVSCKASGYTFTNYYMHWVRQAPGQGLEWMGWMNPIGGGTGYAQKFQGRVTMTRDTSTSTVYMELSSLRSEDTAVYYCARVYDFWSVLSGFDIWGQGTLVTVSS
VL: DIQMTQSPSSLSASVGDRVTITCRASQAISNSLAWYQQKPGKAPKLLIYAASTLQSGVPSRFSGSGSGTDFTLTISSLQPEDFATYYCGQSYSTPPTFGQGTKLEIK
B5: scFv G8(1A03) (scFv, V domains shown)
VH: QVQLVQSGAEVKKPGASVKVSCKASGGTFSRSAITWVRQAPGQGLEWMGWINPNSGATNYAQKFQGRVTMTRDTSTSTVYMELSSLRSEDTAVYYCARDDYGDYVAYFQHWGQGTLVTVSS
VL: DIQMTQSPSSLSASVGDRVTITCRASQSITSYLNWYQQKPGKAPKLLIYDASNLETGVPSRFSGSGSGTDFTLTISSLQPEDFATYYCQQNYNSVTFGQGTKLEIK
B6: scFv G8(1A04) (scFv, V domains shown)
VH: QVQLVQSGAEVKKPGASVKVSCKASGYPFIGQYLHWVRQAPGQGLEWMGIINPSGDSATYAQKFQGRVTMTRDTSTSTVYMELSSLRSEDTAVYYCARDLSYYYGMDVWGQGTTVTVSS
VL: DIQMTQSPSSLSASVGDRVTITCWASQGISSYLAWYQQKPGKAPKLLIYAASSLQSGVPSRFSGSGSGTDFTLTISSLQPEDFATYYCQQSYNTPWTFGPGTKVDIK
B7: scFv G8(5C03) (scFv, V domains shown)
VH: QVQLVQSGAEVKKPGASVKVSCKASGYTFTSYYMHWVRQAPGQGLEWMGWMNPNSGNTGYAQKFQGRVTMTRDTSTSTVYMELSSLRSEDTAVYYCARGLLGFGEFLTYGMDVWGQGTLVTVSS
VL: DIQMTQSPSSLSASVGDRVTITCRASQGISNWLAWYQQKPGKAPKLLIYAASTLQSGVPSRFSGSGSGTDFTLTISSLQPEDFATYYCQQTYSTPWTFGQGTKLEIK
B8: scFv G8(4F05) (scFv, V domains shown)
VH: QVQLVQSGAEVKKPGASVKVSCKASGYTFSNMYLHWVRQAPGQGLEWMGWINPNTGDTNYAQTFQGRVTMTRDTSTSTVYMELSSLRSEDTAVYYCARGLYGDYFLYYGMDVWGQGTKVTVSS
VL: DIQMTQSPSSLSASVGDRVTITCRASQGISNYLAWYQQKPGKAPKLLIYAASTLQSGVPSRFSGSGSGTDFTLTISSLQPEDFATYYCQQSYSTPLTFGGGTKVEIK
B9: scFv G8(2E06) (scFv, V domains shown)
VH: QVQLVQSGAEVKKPGASVKVSCKASGYTLTTYYMHWVRQAPGQGLEWMGWINPNSGGTNYAQKFQGRVTMTRDTSTSTVYMELSSLRSEDTAVYYCARAVYYDFWSGPFDYWGQGTLVTVSS
VL: DIQMTQSPSSLSASVGDRVTITCRASQGISNSLAWYQQKPGKAPKLLIYAASSLQSGVPSRFSGSGSGTDFTLTISSLQPEDFATYYCQQANSFPWTFGQGTKLEIK
B10: scFv G8(1D02) (scFv, V domains shown)
VH: EVQLLESGGGLVQPGGSLRLSCAASGFTFSSYWMSWVRQAPGKGLEWVSSISGRGDNTYYADSVKGRFTISRDNSKNTLYLQMNSLRAEDTAVYYCARASGSGYYYYYGMDVWGQGTTVTVSS
VL: DIQMTQSPSSLSASVGDRVTITCQASQDISNYLNWYQQKPGKAPKLLIYAASSLQSGVPSRFSGSGSGTDFTLTISSLQPEDFATYYCQQSYSAPYTFGGGTKVEIK
B11: scFv G8(1B03) (scFv, V domains shown)
VH: EVQLLESGGGLVQPGGSLRLSCAASGFTFSDYYMSWVRQAPGKGLEWVSGINWNGGSTGYADSVKGRFTISRDNSKNTLYLQMNSLRAEDTAVYYCARVEQGYDIYYYYYMDVWGKGTTVTVSS
VL: DIQMTQSPSSLSASVGDRVTITCRASQSISSYLNWYQQKPGKAPKLLIYKASSLESGVPSRFSGSGSGTDFTLTISSLQPEDFATYYCQQSYSAPYTFGPGTKVDIK
B12: scFv G8(5G08) (scFv, V domains shown)
VH: QVQLVQSGAEVKKPGASVKVSCKASGYTFTSNYMHWVRQAPGQGLEWMGWMNPNSGNTGYAQKFQGRVTMTRDTSTSTVYMELSSLRSEDTAVYYCARGLYGDYFLYYGMDVWGQGTTVTVSS
VL: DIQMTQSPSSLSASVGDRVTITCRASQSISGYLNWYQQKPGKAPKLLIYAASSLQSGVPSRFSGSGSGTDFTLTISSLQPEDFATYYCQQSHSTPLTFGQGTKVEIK
B13: scFv G8(2B05) (scFv, V domains shown)
VH: EVQLLESGGGLVQPGGSLRLSCAASGFDFSIYSMNWVRQAPGKGLEWVSAISGSGGSTYYADSVKGRFTISRDNSKNTLYLQMNSLRAEDTAVYYCASNGNYYGSGSYYNYWGQGTLVTVSS
VL: DIQMTQSPSSLSASVGDRVTITCRASQSISRWLAWYQQKPGKAPKLLIYAASSLQSGVPSRFSGSGSGTDFTLTISSLQPEDFATYYCQQYSTYPITIGQGTKVEIK
B14: scFv G10(3E04) (scFv, V domains shown)
VH: QVQLVQSGAEVKKPGASVKVSCKASGNTFIGYYVHWVRQAPGQGLEWVGIINPNGGSISYAQKFQGRVTMTRDTSTSTVYMELSSLRSEDTAVYYCARGSGDPNYYYYYGLDVWGQGTTVTVSS
VL: DIQMTQSPSSLSASVGDRVTITCQASQDISNYLNWYQQKPGKAPKLLIYAASNLQSGVPSRFSGSGSGTDFTLTISSLQPEDFATYYCQQANSLPYTFGQGTKVEIK
B15: scFv G10(2G11) (scFv, V domains shown)
VH: QVQLVQSGAEVKKPGASVKVSCKASGGTFSTHDINWVRQAPGQGLEWMGVINPSGGSAIYAQKFQGRVTMTRDTSTSTVYMELSSLRSEDTAVYYCARDRGYSYGYFDYWGQGTLVTVSS
VL: DIQMTQSPSSLSASVGDRVTITCRASQDISRYLAWYQQKPGKAPKLLIYDASNLETGVPSRFSGSGSGTDFTLTISSLQPEDFATYYCQQANSFPRTFGQGTKVEIK
B16: scFv G10(1F06) (scFv, V domains shown)
VH: QVQLVQSGAEVKKPGASVKVSCKASGYTFIGYYMHWVRQAPGQGLEWMGMIGPSDGSTSYAQKFQGRVTMTRDTSTSTVYMELSSLRSEDTAVYYCARDSSGLDPWGQGTLVTVSS
VL: DIQMTQSPSSLSASVGDRVTITCRASQSISNYLNWYQQKPGKAPKLLIYKASSLESGVPSRFSGSGSGTDFTLTISSLQPEDFATYYCQQSYIIPYTFGQGTKLEIK
notes: also called G10(1F6)
B17: scFv G10(4D04) (scFv, V domains shown)
VH: QVQLVQSGAEVKKPGASVKVSCKASGYTFTGYYVHWVRQAPGQGLEWMGIIAPSDGSTNYAQKFQGRVTMTRDTSTSTVYMELSSLRSEDTAVYYCARDPGGYMDVWGKGTTVTVSS
VL: DIQMTQSPSSLSASVGDRVTITCRASQSISSYLAWYQQKPGKAPKLLIYDASKLETGVPSRFSGSGSGTDFTLTISSLQPEDFATYYCQQSYGVPTFGQGTKLEIK
B18: scFv G10(1H01) (scFv, V domains shown)
VH: QVQLVQSGAEVKKPGASVKVSCKASGYTFTGYYMHWVRQAPGQGLEWMGMIGPSDGSTSYAQKFQGRVTMTRDTSTSTVYMELSSLRSEDTAVYYCARGVGNLDYWGQGTLVTVSS
VL: DIQMTQSPSSLSASVGDRVTITCRASQSISNYLNWYQQKPGKAPKLLIYAASSLQSGVPSRFSGSGSGTDFTLTISSLQPEDFATYYCHQTYSTPLTFGQGTKVEIK
B19: scFv G10(1A07) (scFv, V domains shown)
VH: EVQLLESGGGLVKPGGSLRLSCAASGFTFSSYWMSWVRQAPGKGLEWVSGISARSGRTYYADSVKGRFTISRDDSKNTLYLQMNSLKTEDTAVYYCARDQDTIFGVVITWFDPWGQGTLVTVSS
VL: DIQMTQSPSSLSASVGDRVTITCRASQGISNYLAWYQQKPGKAPKLLIYAASSLQGGVPSRFSGSGSGTDFTLTISSLQPEDFATYYCQQYFTTPYTFGQGTKLEIK
B20: scFv G10(4D10) (scFv, V domains shown)
VH: QVQLVQSGAEVKKPGASVKVSCKASGYTFTGYYLHWVRQAPGQGLEWMGMIGPSDGSTSYAQKFQGRVTMTRDTSTSTVYMELSSLRSEDTAVYYCARDGDAFDIWGQGTMVTVSS
VL: DIQMTQSPSSLSASVGDRVTITCRASQGISSWLAWYQQKPGKAPKLLIYDASNLETGVPSRFSGSGSGTDFTLTISSLQPEDFATYYCQQSYSTPLTFGGGTKVEIK
B21: scFv G10(1E12) (scFv, V domains shown)
VH: QVQLVQSGAEVKKPGASVKVSCKASGYIFTGYYMHWVRQAPGQGLEWMGMIGPSDGSTSYAQKFQGRVTMTRDTSTSTVYMELSSLRSEDTAVYYCAREDDSMDVWGKGTTVTVSS
VL: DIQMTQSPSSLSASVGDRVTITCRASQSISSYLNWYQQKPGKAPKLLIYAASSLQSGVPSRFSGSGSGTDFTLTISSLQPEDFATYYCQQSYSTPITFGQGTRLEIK
B22: scFv G10(2C04) (scFv, V domains shown)
VH: QVQLVQSGAEVKKPGASVKVSCKASGGTFSNSIINWVRQAPGQGLEWMGWMNPNSGNTNYAQKFQGRVTMTRDTSTSTVYMELSSLRSEDTAVYYCAREQWPSYWYFDLWGRGTLVTVSS
VL: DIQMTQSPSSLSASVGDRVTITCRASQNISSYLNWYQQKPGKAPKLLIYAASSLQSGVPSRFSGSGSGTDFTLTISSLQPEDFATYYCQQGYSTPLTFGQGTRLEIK

What follows are binders tested against HLA-PEPTIDE target G8: HLA-A*02:01_…, recombinant soluble complex (human, enzymatically biotinylated (BirA) for screening and BLI) (assay: phage display, scFv ELISA on pHLA against negative control pHLAs).

Binding result, binds:
B1, B2, B3, B4, B5, B6, B7, B8, B9, B10, B11, B12, B13

The binders below were run against HLA-PEPTIDE target G10: HLA-A*01:01_…, recombinant soluble complex (human, enzymatically biotinylated (BirA)) in the same assay as above.

Binding result, binds:
B14, B15, B16, B17, B18, B19, B20, B21, B22
